We go through 1 molecule from US20220090060A1 (Regeneron, published 2022).

For this experiment, the target named is T1, hCD22.mmh (human, UniProt P20273 20-687).
T1 construct: Analyte of the Biacore assay; also called Recombinant CD22; human CD22
T1 sequence (looked up): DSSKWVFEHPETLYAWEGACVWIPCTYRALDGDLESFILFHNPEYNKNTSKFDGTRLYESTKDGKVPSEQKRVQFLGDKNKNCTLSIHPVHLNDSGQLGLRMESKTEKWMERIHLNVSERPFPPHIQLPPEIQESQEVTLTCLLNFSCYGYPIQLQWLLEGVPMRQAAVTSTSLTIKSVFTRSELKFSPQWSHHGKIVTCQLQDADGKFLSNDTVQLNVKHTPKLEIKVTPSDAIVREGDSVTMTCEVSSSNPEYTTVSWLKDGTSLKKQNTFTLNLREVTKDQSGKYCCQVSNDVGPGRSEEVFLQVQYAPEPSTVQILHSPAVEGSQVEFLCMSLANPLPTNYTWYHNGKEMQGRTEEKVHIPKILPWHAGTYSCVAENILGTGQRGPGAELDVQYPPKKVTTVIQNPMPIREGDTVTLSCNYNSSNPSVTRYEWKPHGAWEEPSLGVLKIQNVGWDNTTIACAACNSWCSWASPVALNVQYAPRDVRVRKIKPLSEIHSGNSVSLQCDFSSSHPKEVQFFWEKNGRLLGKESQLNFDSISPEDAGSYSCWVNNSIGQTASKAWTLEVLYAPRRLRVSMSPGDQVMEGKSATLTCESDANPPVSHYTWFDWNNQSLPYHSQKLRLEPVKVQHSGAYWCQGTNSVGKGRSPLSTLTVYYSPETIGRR
Nature of the experiment: SPR (Biacore), mAb captured from CHO supernatant on anti-human Fc, 25C pH 7.4.

B1: mAb23 (antibody, V domains shown)
VH: EVQLLESGGGLVQPGGSLRLSCAASGFTFSSYAMTWVRQAPGKGLEWVSTISGSGVSTYSADSVKGRFTISRDNSKNTLYLQMNSLRAEDTAVYYCALHWELLDAFDIWGQGTMVTVSS
VL: EIVLTQSPGTLSLSPGERATLSCRASQSISYNYLAWYQQKPGQAPRLLIYGASSRASGISDRFSGSGSGTDFTLTISRLEPEDFVVYYCQQYGSSPLTFGGGTKVEVK
B1 registered a Kd of 160 nM, a koff of 0.0117 s⁻¹, a kon of 73200 M⁻¹ s⁻¹ and a t½ of 1 min.
